Measured values reported in patent US20190241671A1 (Merck KGaA, published 2019).

Experiments:
[1] = molecular target: T1, CD19 antigen on Daudi lymphoma cells (human, UniProt P15391 20-556); test: FACS competition on Daudi cells; unlabeled antibody 100 ng/ml (1x) vs competitor biotin-B4 VH0/VK0 100 ng/ml
T1 construct: whole, on cells; also called Daudi cells
T1 sequence (looked up): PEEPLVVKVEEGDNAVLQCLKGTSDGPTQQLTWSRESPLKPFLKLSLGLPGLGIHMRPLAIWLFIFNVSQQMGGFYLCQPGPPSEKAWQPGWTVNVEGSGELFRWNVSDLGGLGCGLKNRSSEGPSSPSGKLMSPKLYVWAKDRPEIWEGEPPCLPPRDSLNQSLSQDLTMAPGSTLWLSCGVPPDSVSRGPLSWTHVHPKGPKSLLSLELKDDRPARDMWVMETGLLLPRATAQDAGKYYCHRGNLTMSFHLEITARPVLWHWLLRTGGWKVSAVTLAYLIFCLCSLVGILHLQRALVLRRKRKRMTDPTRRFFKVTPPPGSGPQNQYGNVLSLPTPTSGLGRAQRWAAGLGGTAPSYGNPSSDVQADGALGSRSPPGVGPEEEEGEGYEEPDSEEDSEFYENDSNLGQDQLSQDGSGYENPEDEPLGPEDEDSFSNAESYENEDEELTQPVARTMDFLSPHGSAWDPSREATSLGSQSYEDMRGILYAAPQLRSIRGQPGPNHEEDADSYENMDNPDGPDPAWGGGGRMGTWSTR
Procedure: (§1) Briefly, a titration series was prepared of biotin-labeled B4 VH0/VK0 antibody pre-mixed at a final concentration of 100 ng/ml with one of the unlabeled, experimental B4 VHvx/VKvy antibodies at 800 ng/ml, 400 ng/ml, 200 ng/ml, 100 ng/ml, and 50 ng/ml in a PBS/2% serum buffer. As a control, the biotin-labeled antibody was pre-mixed with unlabeled B4 VH0/VK0 antibody at the same concentrations as above (inhibition control) or with buffer only (positive binding control). The combined antibodies were added to Daudi cells for 30 minutes at 4° C. A 1:200 dilution of FITC-labeled streptavidin was added to the cells and the samples were incubated for a further 30 minutes at 4° C. Bound amount of labeled B4 VH0/VK0 antibody was quantitated by FACS analysis, and the results were expressed as “percent inhibition,” relative to the positive binding control. The tested antibodies were B4 VH0/VK0 (C), B4 VHv1/VKv1 (1), B4 VHv2/VKv1 (2), B4 VHv1/VKv2 (3), B4 VHv2/VKv2 (4), B4 VHv3/VKv3 (5), B4 VHv4/VKv3 (6), B4 VHv3/VKv4 (7), B4 VHv4/VKv4 (8), B4 VHv5/VKv4 (9), and B4 VHv6/VKv4 (10).

[2] = molecular target: T1, CD19 antigen on Daudi lymphoma cells; test: FACS competition on Daudi cells; unlabeled antibody 50 ng/ml (0.5x) vs competitor biotin-B4 VH0/VK0 100 ng/ml
Procedure: as §1

[3] = molecular target: T1, CD19 antigen on Daudi lymphoma cells; test: FACS competition on Daudi cells; unlabeled antibody 100 ng/ml (1x) vs competitor biotin-B4 VH0/VK0 100 ng/ml; remark: listed apart in the source
Procedure: as §1

[4] = molecular target: T1, CD19 antigen on Daudi lymphoma cells; test: FACS competition on Daudi cells; unlabeled antibody 800 ng/ml (8x) vs competitor biotin-B4 VH0/VK0 100 ng/ml
Procedure: as §1

[5] = molecular target: T1, CD19 antigen on Daudi lymphoma cells; test: FACS competition on Daudi cells; unlabeled antibody 200 ng/ml (2x) vs competitor biotin-B4 VH0/VK0 100 ng/ml
Procedure: as §1

[6] = molecular target: T1, CD19 antigen on Daudi lymphoma cells; test: FACS competition on Daudi cells; unlabeled antibody 400 ng/ml (4x) vs competitor biotin-B4 VH0/VK0 100 ng/ml
Procedure: as §1

[7] = molecular target: T1, CD19 antigen on Daudi lymphoma cells; test: FACS competition on Daudi cells; unlabeled antibody 800 ng/ml (8x) vs competitor biotin-B4 VH0/VK0 100 ng/ml; remark: listed apart in the source
Procedure: as §1

[8] = molecular target: T1, CD19 antigen on Daudi lymphoma cells; test: FACS competition on Daudi cells; unlabeled antibody 400 ng/ml (4x) vs competitor biotin-B4 VH0/VK0 100 ng/ml; remark: listed apart in the source
Procedure: as §1

[9] = molecular target: T1, CD19 antigen on Daudi lymphoma cells; test: FACS competition on Daudi cells; unlabeled antibody 200 ng/ml (2x) vs competitor biotin-B4 VH0/VK0 100 ng/ml; remark: listed apart in the source
Procedure: as §1

[10] = molecular target: T1, CD19 antigen on Daudi lymphoma cells; test: FACS competition on Daudi cells; unlabeled antibody 50 ng/ml (0.5x) vs competitor biotin-B4 VH0/VK0 100 ng/ml; remark: listed apart in the source
Procedure: as §1

% inhibition of labeled B4 binding [1]: 28%
% inhibition of labeled B4 binding [2]: 50%
% inhibition of labeled B4 binding [3]: 67%
% inhibition of labeled B4 binding [4]: 68%
% inhibition of labeled B4 binding [5]: 83%
% inhibition of labeled B4 binding [6]: 56%
% inhibition of labeled B4 binding [7]: 93%
% inhibition of labeled B4 binding [8]: 90%
% inhibition of labeled B4 binding [9]: 44%
% inhibition of labeled B4 binding [10]: 16%
B1: B4 VH0/VK0 antibody (antibody, V domains shown)
VH: QVQLQQPGAEVVKPGASVRLSCKTSGYTFTSNWMHWVKQRPGQGLEWIGEIDPSDSYTNYNQKFKGKAKLTVDKSSSTAYMEVSSLTSEDSAVYYCARGSNPYYYAMDYWGQGTSVTVSS
VL: QIVLTQSPAIMSASPGEKVTMTCSASSGVNYMHWYQQKPGTSPKRWIYDTSKLASGVPARFSGSGSGTSYSLTISSMEAEDAATYYCHQRGSYTFGGGTKLEIK
notes: Expressed from pdHL12 as intact heavy and light chains; also called parental B4 antibody
